Like-named read-outs stand apart in the source and are kept apart here.
| Substance | enzymatic_activity (phosphorylation at Y416) | enzymatic_activity (phosphorylation at Y527) |
| --- | --- | --- |
| cSrc: Y416F | abolishes | – |
| cSrc: Y527F | – | increases |

— publication PMC5216914
